Measurements reported in patent EP0975354B1.

What was measured:
[1] = molecular target: LH receptor on bovine granulosa cells and small luteal cells (bovine) (UniProt Q28005); experiment: cell-based or functional assay
[2] = molecular target: GnRH receptor of rat pituitary membranes (rat) (UniProt P30969); experiment: radioligand displacement on rat pituitary membranes, equimolar concentrations; reference native GnRH
UniProt P30969, sequence (P30969 whole entry): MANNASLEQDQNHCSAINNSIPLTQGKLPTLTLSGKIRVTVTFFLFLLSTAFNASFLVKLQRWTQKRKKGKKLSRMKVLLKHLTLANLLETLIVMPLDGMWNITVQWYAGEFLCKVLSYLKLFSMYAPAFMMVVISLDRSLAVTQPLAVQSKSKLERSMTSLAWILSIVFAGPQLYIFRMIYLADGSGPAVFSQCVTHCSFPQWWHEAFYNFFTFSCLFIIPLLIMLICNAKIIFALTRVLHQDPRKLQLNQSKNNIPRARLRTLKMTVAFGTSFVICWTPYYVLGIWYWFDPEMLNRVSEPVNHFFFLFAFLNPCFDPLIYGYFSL

UniProt Q28005, sequence (Q28005 27-701): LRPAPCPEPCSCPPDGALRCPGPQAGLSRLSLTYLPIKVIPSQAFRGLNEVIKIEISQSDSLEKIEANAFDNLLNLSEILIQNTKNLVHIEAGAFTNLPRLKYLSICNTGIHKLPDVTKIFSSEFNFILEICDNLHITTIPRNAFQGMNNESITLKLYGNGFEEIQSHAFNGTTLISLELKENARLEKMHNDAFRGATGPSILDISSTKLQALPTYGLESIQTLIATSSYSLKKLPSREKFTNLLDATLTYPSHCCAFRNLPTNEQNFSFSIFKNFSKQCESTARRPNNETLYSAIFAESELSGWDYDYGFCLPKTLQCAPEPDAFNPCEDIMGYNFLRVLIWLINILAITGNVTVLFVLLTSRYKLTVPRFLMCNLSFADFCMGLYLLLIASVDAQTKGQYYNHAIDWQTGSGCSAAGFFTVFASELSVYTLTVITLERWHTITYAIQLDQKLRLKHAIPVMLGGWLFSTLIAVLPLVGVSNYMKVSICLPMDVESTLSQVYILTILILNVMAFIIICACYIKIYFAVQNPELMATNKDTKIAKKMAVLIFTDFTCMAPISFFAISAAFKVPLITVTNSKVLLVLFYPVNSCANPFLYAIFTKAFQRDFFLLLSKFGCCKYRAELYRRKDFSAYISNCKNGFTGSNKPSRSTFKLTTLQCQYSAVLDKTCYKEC

Substance	killing of bovine granulosa cells (Trypan Blue exclusion) (fold of the cells killed by hecate alone) [1]	killing of bovine small luteal cells (Trypan Blue exclusion) (fold of the cells killed by hecate alone) [1]	displacement of radiolabelled GnRH as percent of the cpm displaced by native GnRH [2]
hecate-bLH conjugate (peptide)	2	2	
D-Lys6GnRH (peptide)			187%
